Results taken from patent publication US20060270596A1 (CENTRE NATIONAL DE LA RECHERCHE SCIENTIFIQUE CNRS, published 2006).

T1: human THAP1 (THanatos-Associated-Protein-1), full length (human, UniProt Q9NVV9 1-213)
T1 construct: these tags are not written into the chain; also called hTHAP1; THAP1 wild type
T1 sequence: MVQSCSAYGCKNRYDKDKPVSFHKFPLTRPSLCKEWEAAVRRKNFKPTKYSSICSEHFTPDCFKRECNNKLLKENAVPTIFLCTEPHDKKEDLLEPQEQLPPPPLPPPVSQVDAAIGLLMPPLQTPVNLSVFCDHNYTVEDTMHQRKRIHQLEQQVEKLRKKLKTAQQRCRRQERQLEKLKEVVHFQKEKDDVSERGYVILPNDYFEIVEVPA

T2: GST-THAP1 fusion protein (THAP1 amino acids 1-213) (human, UniProt Q5RCE4 1-213 (Pongo abelii entry))
T2 construct: Expressed in E. coli, immobilized on glutathione sepharose; also called immobilized GST-THAP1; not shown: glutathione S-transferase encoded by vector pGEX-2T (Amersham Pharmacia Biotech)
T2 sequence: T1 sequence

T3: GST-THAP3 181-284 (chemokine-binding domain of THAP3) (human, UniProt Q8WTV1 136-239)
T3 construct: not shown: GST (glutathione S-transferase of pGEX2T) and its linker at the N end
T3 sequence: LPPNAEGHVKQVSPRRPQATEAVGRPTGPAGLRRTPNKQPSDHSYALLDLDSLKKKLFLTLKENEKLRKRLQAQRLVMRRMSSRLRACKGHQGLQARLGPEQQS

T4: human chemokine SLC/CCL21, mature form (amino acids 24-134) (human, UniProt O00585 24-134)
T4 construct: GenBank NP-002980; Used as Gal4 fusion in two-hybrid and as 35S-labelled in vitro translation product in pull-downs; also called SLC/6Ckine; SLC/CCL21 wild type
T4 sequence: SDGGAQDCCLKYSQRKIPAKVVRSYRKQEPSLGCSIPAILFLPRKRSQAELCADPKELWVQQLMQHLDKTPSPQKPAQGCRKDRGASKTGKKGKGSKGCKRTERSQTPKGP

T5: chemokine CXCL8 (UniProt P10145 1-99, limits assumed)
T5 construct: 35S-labelled in vitro translation product
T5 sequence (looked up): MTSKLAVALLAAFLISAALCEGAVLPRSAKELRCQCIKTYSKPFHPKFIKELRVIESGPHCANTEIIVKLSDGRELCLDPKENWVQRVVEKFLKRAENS

B1: human chemokine ELC/CCL19, mature form (amino acids 22-98) (ligand)
chain: GTNDAEDCCLSVTQKPIPGYIVRNFHYLLIKDGCRVPAVVFTTLRGRQLCAPPDQPWVERIIQRLQRTSAKMKRRSS
notes: Residues are printed against GenBank NM-006274; Gal4-BD fusion or in vitro translation product
B2: THAP1ΔQRCRR mutant (deletion of residues 168-172) (other)
chain: MVQSCSAYGCKNRYDKDKPVSFHKFPLTRPSLCKEWEAAVRRKNFKPTKYSSICSEHFTPDCFKRECNNKLLKENAVPTIFLCTEPHDKKEDLLEPQEQLPPPPLPPPVSQVDAAIGLLMPPLQTPVNLSVFCDHNYTVEDTMHQRKRIHQLEQQVEKLRKKLKTAQQERQLEKLKEVVHFQKEKDDVSERGYVILPNDYFEIVEVPA
B3: THAP1-N1 deletion mutant (amino acids 1-90) (other)
chain: MVQSCSAYGCKNRYDKDKPVSFHKFPLTRPSLCKEWEAAVRRKNFKPTKYSSICSEHFTPDCFKRECNNKLLKENAVPTIFLCTEPHDKK
notes: Gal4 fusion, in vitro translation product or GFP fusion according to assay; also called zinc finger domain of THAP1
B4: human cytokine interferon gamma (amino acids 21-166) (ligand)
chain: CYCQDPYVKEAENLKKYFNAGHSDVADNGTLFLGILKNWKEESDRKIMQSQIVSFYFKLFKNFKDDQSIQKSVETIKEDMNVKFFNSNKKKRDDFEKLTNYSVTDLNVQRKAIHELIQVMAELSPAAKTGKRKRSQMLFQGRRASQ
notes: Residues are given against GenBank NM-000619; Negative control; also called IFNγ; IFN
B5: human chemokine MIG/CXCL9, mature form (amino acids 23-125) (ligand)
chain: TPVVRKGRCSCISTNQGTIHLQSLKDLKQFAPSPSCEKIEIIATLKNGVQTCLNPDSADVKELIKKWEKQVSQKKKQKNGKKHQKKKVLKVRKSQRSRQKKTT
notes: Residues are printed against GenBank NM-002416; Gal4 fusion or in vitro translation product
B6: GST-THAP2 133-228 (chemokine-binding domain of THAP2) (other)
chain: EAKKRIIKLEKEIASLRRKMKTCLQKERRATRRWIKATCLVKNLEANSVLPKGTSEHMLPTALSSLPLEDFKILEQDQQDKTLLSLNLKQTKSTFI
notes: Immobilized on glutathione sepharose; not shown: glutathione S-transferase encoded by vector pGEX2T (Amersham Biosciences)
B7: THAP1-C2 deletion mutant (amino acids 120-213) (other)
chain: MPPLQTPVNLSVFCDHNYTVEDTMHQRKRIHQLEQQVEKLRKKLKTAQQRCRRQERQLEKLKEVVHFQKEKDDVSERGYVILPNDYFEIVEVPA
notes: Gal4 fusion, in vitro translation product or GFP fusion according to assay
B8: THAP1-C3 deletion mutant (amino acids 143-213) (other)
chain: MHQRKRIHQLEQQVEKLRKKLKTAQQRCRRQERQLEKLKEVVHFQKEKDDVSERGYVILPNDYFEIVEVPA
notes: as for B7
B9: THAP1-C1 deletion mutant (amino acids 90-213) (other)
chain: KEDLLEPQEQLPPPPLPPPVSQVDAAIGLLMPPLQTPVNLSVFCDHNYTVEDTMHQRKRIHQLEQQVEKLRKKLKTAQQRCRRQERQLEKLKEVVHFQKEKDDVSERGYVILPNDYFEIVEVPA
notes: Gal4 fusion, in vitro translation product or GFP fusion according to assay; also called THAP1-CL; THAP1ΔTHAP
B10: THAP1-N3 deletion mutant (amino acids 1-192) (other)
chain: MVQSCSAYGCKNRYDKDKPVSFHKFPLTRPSLCKEWEAAVRRKNFKPTKYSSICSEHFTPDCFKRECNNKLLKENAVPTIFLCTEPHDKKEDLLEPQEQLPPPPLPPPVSQVDAAIGLLMPPLQTPVNLSVFCDHNYTVEDTMHQRKRIHQLEQQVEKLRKKLKTAQQRCRRQERQLEKLKEVVHFQKEKDD
notes: as for B7

Assays:
[1] = biological target: T1, human THAP1 …; assay: yeast two-hybrid, chemokine bait and THAP1 prey
[2] = biological target: T6, GST (glutathione S-transferase) control protein (UniProt P08515 1-218 = GST); assay: GST pull-down, negative control: in vitro translated 35S-labelled chemokine or cytokine on GST alone immobilised on glutathione sepharose, SDS-PAGE, fluorography
T6 construct: Negative control in GST pull-down assays; also called GST beads; GST alone

[3] = biological target: T1, human THAP1 …; assay: yeast two-hybrid, THAP1 bait
[4] = biological target: T2, GST-THAP1 fusion protein (THAP1 amino …); assay: GST pull-down: in vitro translated 35S-labelled protein on GST-THAP1 immobilised on glutathione sepharose, SDS-PAGE, fluorography
Protocol: To confirm the results obtained in yeast, THAP1 mutants were also tested in in vitro GST pull down assays. Wild type THAP1 expressed as a GST-tagged fusion protein and immobilized on glutathione sepharose (as described in example 16), was incubated with radiolabeled in vitro translated THAP1 mutants. In vitro-translated THAP1 mutants were generated with the TNT-coupled reticulocyte lysate system (Promega, Madison, Wis., USA) using pGADT7-THAP1-C1, -C2, -C3, -N1, -N2 or -N3 vector as template. 25 μl of each ³⁵S-labelled THAP1 mutant was incubated with immobilized GST or GST-THAP1 wild-type protein overnight at 4° C., in the following binding buffer: 10 mM NaPO4 pH 8.0, 140 mM NaCl, 3 mM MgCl2, 1 mM dithiothreitol (DTT), 0.05% NP40, and 0.2 mM phenylmethyl sulphonyl fluoride (PMSF), 1 mM Na Vanadate, 50 mM β Glycerophosphate, 25 μg/ml chimotrypsine, 5 μg/ml aprotinin, 10 μg/ml Leupeptin. Beads were then washed 5 times in 1 ml binding buffer. Bound proteins were eluted with 2× Laemmli SDS-PAGE sample buffer, fractionated by 10% SDS-PAGE and visualized by fluorography using Amplify (Amersham Pharmacia Biotech). As expected, THAP1-C1, -C2, -C3, -and -N3 interacted with GST/THAP1 (FIG. 16B).

[5] = biological target: T3, GST-THAP3 181-284 (chemokine-binding …); assay: GST pull-down, 35S-labelled in vitro translated molecule
[6] = biological target: T1, human THAP1 …; assay: yeast two-hybrid
[7] = biological target: T4, human chemokine SLC/CCL21, mature form …; assay: yeast two-hybrid
[8] = biological target: T2, GST-THAP1 fusion protein (THAP1 amino …); assay: GST pull-down: in vitro translated 35S-labelled chemokine or cytokine on the GST fusion immobilised on glutathione sepharose, SDS-PAGE, fluorography
chemokine CXCL8 = biological target: T5, chemokine CXCL8; assay: GST pull-down: in vitro translated 35S-labelled protein on the GST fusion immobilised on glutathione sepharose, SDS-PAGE, fluorography

T6 sequence (P08515 whole entry): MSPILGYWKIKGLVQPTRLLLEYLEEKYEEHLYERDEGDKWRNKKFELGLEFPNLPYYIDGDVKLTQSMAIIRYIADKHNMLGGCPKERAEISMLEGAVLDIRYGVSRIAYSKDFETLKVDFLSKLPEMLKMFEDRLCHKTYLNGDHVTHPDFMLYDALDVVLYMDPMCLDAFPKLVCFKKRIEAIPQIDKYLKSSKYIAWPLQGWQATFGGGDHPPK

| Binder | binding result [2] | binding result [6] | binding result [7] | other results |
| --- | --- | --- | --- | --- |
| B1 | no binding |  |  | binding result [1]: binds |
| B2 |  |  |  | binding result [3]: no binding |
| B3 |  | no binding | no binding | binding result [4]: no binding; binding result [5]: no binding |
| B4 | no binding | no binding |  | binding result [8]: no binding; binding result [5]: no binding |
| B5 | no binding |  |  |  |
| B6 |  |  |  | binding result (chemokine CXCL8): no binding |
| B7 |  | binds | binds |  |
| B8 |  | binds | binds |  |
| B9 |  | binds |  |  |
| B10 |  | binds |  |  |
